Several values for one entry are separate records, joined by “and”; a condition that tells them apart may be missing. Identical values can stand only once. Like-named read-outs stand apart in the source and are kept apart here. Values belong to the molecule of their own block, whether it stands above or below them.
Experiments:
[1] = system: Thielavia arenaria ALKO4197 laccase TaLcc3, recombinant, SEQ ID NO: 43; assay: Kinetic parameters of TaLcc3; format: biochemical
Procedure: (§1) On syringaldazin and DMP 40 mM MES buffer, pH 6 was used. All activity assays were carried out at 25° C. Kinetic parameters were estimated by a nonlinear regression curve fit. The values were compared to those of Melanocarpus albomyces MaL, laccase.

[2] = molecular target: T1, Melanocarpus albomyces laccase (MaL) (Melanocarpus albomyces, UniProt Q70KY3); assay: Kinetic parameters of MaL; format: biochemical
T1 sequence (Q70KY3 51-609): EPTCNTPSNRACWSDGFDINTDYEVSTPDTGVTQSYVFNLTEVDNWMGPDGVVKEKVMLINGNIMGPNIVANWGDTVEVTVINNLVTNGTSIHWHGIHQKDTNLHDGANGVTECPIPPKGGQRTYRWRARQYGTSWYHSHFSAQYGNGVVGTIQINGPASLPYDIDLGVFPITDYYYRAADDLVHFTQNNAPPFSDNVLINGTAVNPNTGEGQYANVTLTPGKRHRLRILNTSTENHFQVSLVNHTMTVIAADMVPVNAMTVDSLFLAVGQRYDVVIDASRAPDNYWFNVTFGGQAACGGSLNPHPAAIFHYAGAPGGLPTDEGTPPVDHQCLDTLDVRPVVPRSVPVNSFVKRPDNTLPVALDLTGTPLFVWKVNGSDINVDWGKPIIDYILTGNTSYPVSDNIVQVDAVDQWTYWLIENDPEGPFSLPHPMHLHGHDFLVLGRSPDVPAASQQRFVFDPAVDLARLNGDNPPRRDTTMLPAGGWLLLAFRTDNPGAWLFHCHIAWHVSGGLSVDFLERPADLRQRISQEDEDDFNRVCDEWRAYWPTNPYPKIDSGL
Procedure: as §1

[3] = molecular target: T2, Thielavia arenaria ALKO4197 laccase TaLcc1, recombinant, SEQ ID NO: 39 (Canariomyces arenarius, UniProt F6N9E7); format: biochemical
T2 construct: plasmid pALK1342 (DSM 15484)
Procedure: as §1

[4] = system: Thielavia arenaria ALKO4197 laccase TaLcc4, recombinant, SEQ ID NO: 45; assay: Kinetic parameters of TaLcc4; format: biochemical
Procedure: as §1

[5] = system: wild type Chaetomium (CtL) laccase; format: biochemical, Chaetomium thermophilum; conditions: pH 5
[6] = Specific activity towards ABTS; format: biochemical; conditions: 25 mM succinate buffer pH 4.5, 25° C.
Procedure: The activity assay was carried out in accordance with the method developed by Niku-Paavola et al. (1988). The sample was diluted with 0.025 M succinate buffer, pH 4.5. […] The activity is expressed as nano katals.
(§2) Specific activities of the purified T. arenaria and C. thermophilum laccases were determined towards different laccase substrates.

[7] = Denim bleaching at different pH values; design: key to After laccase treatment L* / After laccase treatment b* / Increase of L*: CIE L*a*b* colour coordinates (illuminant D65), Minolta reflectance; conditions: face side of denim, 30 min, 50° C.
Procedure: (§3) Lee Cooper jeans (MASI Company Oy, Finland) that were desized and treated with neutral ECOSTONE® cellulase were used as test material. Laccase treatments were performed in LP-2 Launder Ometer as follows. About 10 g of denim swatches (15×14 cm) were loaded into 1.2 liter containers containing 200 ml Mc Ilvaine's citrate phosphate buffer pH 5, 6 or 7 and the containers were temperated. Enzyme with or without the mediator (methyl syringate, DeniLite II Assist, Novozymes) was added as laccase activity units. Enzyme was dosed 200 nkat/g and the mediator 10 mg/g on the weight of fabric. […] The Launder Ometer was run at 50° C. for 30 min and after that the temperature in Launder was raised to 80° C. for 10 min. The swatches were carefully rinsed with warm water, dried half-dry in a tumbler and after that air dried.
(§4) The bleaching effect was evaluated by measuring the colour as reflectance values with the Minolta Chromameter CM 1000 (Minolta Co.) using L*a*b* color space coordinates (illuminant D65). The colour from both sides of the swatches was measured before and after the laccase treatment. Each measurement was the average of several measurements.

[8] = Stain removal, tea soiling; design: key to Tea L* / Tea a* / Tea b*: CIE L*a*b* color coordinates from reflectance; conditions: 60 min, pH 6
Procedure: (§5) Laccases CtLcc1, TaLcc2, TaLcc4 and Denilite II Base (Example 7) were tested for their ability to remove stains. The following artificially soiled test cloths were used: grass soiling (Art.164, EMPA Testmaterialen, Germany), tea soiling (Art. 167, EMPA Testmaterialen, Germany). The fabric was cut in 5.8×5.8 cm swatches. Laccase treatments were performed in LP-2 Launder Ometer as follows. About 5 g of soiled fabrics were loaded into 1.2 liter containers containing 150 ml Mc Ilvaine's citrate phosphate buffer pH 6 and the containers were temperated. Enzyme with or without the mediator (methyl syringate, DeniLite II Assist, Novozymes) was added as laccase activity units (Example 7). Enzyme was dosed 200 nkat/g and the mediator 10 mg/g on the weight of fabric, except at 40° C. dosages of 20 nkat/g and 2 mg/g were also used. The Launder Ometer was run at 40, 50 or 60° C. and pH 6 for 60 min. After that the swatches were carefully rinsed under running water and in shake flasks containing warm water and dried in the air.
(§6) The stain removal effect was evaluated by measuring the colour as reflectance values using L*a*b* color space coordinates (Example 7). The colour of the swatches was measured before and after the laccase treatment.

[9] = Specific activity towards di-methoxy-phenol (DMP); format: biochemical; conditions: 25 mM MES buffer, pH 5.5
Procedure: as §2

[10] = Specific activity towards syringaldazine; format: biochemical; conditions: 25 mM MES buffer, pH 5.5
Procedure: as §2

[11] = Denim bleaching at different temperatures; design: key to After laccase treatment L* / After laccase treatment b* / Increase of L*: CIE L*a*b* colour coordinates (illuminant D65), reflectance; conditions: face side of denim; 30 min, 40° C., pH 6; enzyme 200 nkat/g, mediator 10 mg/g
Procedure: as §3, §4
The test system and denim were as in Example 7, except that the conditions during the laccase and mediator treatment in Launder were 30 min, pH 6 and temperature 30-70° C. (DeniLite II Base also at 80° C.) and the enzyme was inactivated by alkaline treatment instead of raising the temperature in Launder as follows. After removing swatches from the containers they were soaked in warm water containing NaOH (pH 11.5) for 10 min and rinsed carefully with warm water. The swatches were dried half-dry in a tumbler and after that air dried. The bleaching effect was evaluated by measuring the colour as reflectance values as in Example 7.

[12] = Stain removal, grass soiling; design: key to Grass L* / Grass a* / Grass b*: CIE L*a*b* color coordinates from reflectance; conditions: for Grass L* / Grass a* / Grass b*: 60 min, pH 6
Procedure: as §5, §6

[13] = Specific activity towards guaiacol; format: biochemical; conditions: 25 mM MES buffer, pH 5.5
Procedure: as §2

[14] = Isoelectric focusing (pI); format: physicochemical; conditions: pH range 3-9
Procedure: Molecular weight of the T. arenaria and C. thermophilum laccases were determined on SDS-PAGE according to Laemmli (1970) The gels used in the SDS-PAGE analysis were ready-made 12% Tris HCl gels (BioRad). Protein bands were visualized by staining with Coomassie Brilliant Blue (R 350; Pharmacia) and compared with molecular weight markers (Prestained Protein Marker Broad Range #7708S; New England BioLabs, Beverly, Mass.). The molecular weight of the both laccases was approximately 80 kDa. The isoelectric point of the laccases was determined with isoelectric focusing within the pH range of 3-9 (Pharmalyte IEF, Pharmacia) on a LKB 2117 Multiphor II Electrophoresis System (LKB Pharmacia, Bromma, Sweden) according to the manufacturer's instructions.
The purified recombinant Thielavia and Chaetomium laccases were characterized in terms of pH optimum, thermal stability, and pI as described in Example 2. The molecular weight was determined by MALDI-TOF mass spectrometry on a Ultraflex™ time-of-flight instrument (BrukerDaltonics, Germany) as previously described (Palonen et al., 2003). The redox-potentials of the T1 coppers of for CtLcc, and TaLcc2 laccases were determined by photometric copper titration in 0.1 M KH2PO4 (pH 6.0) as described by Xu et al. (1996) using the redox titrant couple K3Fe(CN)6/K4Fe(CN)6. The redox potential of TaLcc1 was determined with a combined Pt—AgCl/KCl microelectrode at pH 5.0 according to Sigoillot et al (2004). The characterization results are collected to Table 14.

[15] = 25 mM succinate buffer pH 4.5, 25° C.
[16] = pH 5, enzyme 200 nkat/g without the mediator, or mediator 10 mg/g alone
[17] = pH 5, enzyme 200 nkat/g, mediator 10 mg/g
[18] = pH 6, enzyme 200 nkat/g without the mediator, or mediator 10 mg/g alone
[19] = pH 6, enzyme 200 nkat/g, mediator 10 mg/g
[20] = pH 7, enzyme 200 nkat/g without the mediator, or mediator 10 mg/g alone
[21] = pH 7, enzyme 200 nkat/g, mediator 10 mg/g
[22] = 40° C., enzyme 20 nkat/g + mediator 2 mg/g (Mediator only: 0 nkat/g)
[23] = 40° C., enzyme 200 nkat/g + mediator 10 mg/g (Mediator only: 0 nkat/g)
[24] = 40° C., enzyme 200 nkat/g, mediator 0 mg/g
[25] = 50° C., enzyme 200 nkat/g + mediator 10 mg/g (Mediator only: 0 nkat/g)

T2 sequence (F6N9E7 entry or part of it): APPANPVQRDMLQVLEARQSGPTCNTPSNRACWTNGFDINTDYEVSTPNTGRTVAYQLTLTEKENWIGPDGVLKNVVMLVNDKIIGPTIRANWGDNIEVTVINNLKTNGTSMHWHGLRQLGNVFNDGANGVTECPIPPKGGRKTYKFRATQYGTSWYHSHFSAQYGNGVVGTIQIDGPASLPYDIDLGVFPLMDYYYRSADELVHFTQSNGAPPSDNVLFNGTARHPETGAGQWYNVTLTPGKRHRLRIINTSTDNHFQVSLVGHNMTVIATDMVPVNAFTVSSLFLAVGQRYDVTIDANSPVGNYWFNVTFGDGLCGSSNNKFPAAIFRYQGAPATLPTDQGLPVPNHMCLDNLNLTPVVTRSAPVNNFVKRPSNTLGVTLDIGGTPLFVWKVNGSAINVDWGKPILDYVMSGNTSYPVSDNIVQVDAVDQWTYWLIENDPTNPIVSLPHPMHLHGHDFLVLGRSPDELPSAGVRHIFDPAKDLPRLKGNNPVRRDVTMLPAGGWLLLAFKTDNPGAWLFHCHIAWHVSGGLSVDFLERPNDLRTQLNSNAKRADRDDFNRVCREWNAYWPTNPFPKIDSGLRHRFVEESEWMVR

Molecule: CCn1c(=NN=c2sc3cc(S(=O)(=O)O)ccc3n2CC)sc2cc(S(=O)(=O)O)ccc21 [ABTS, 2,2′azinobis-3-ethylbenzthiazole-6-sulphonate]
Km [1, 15]: 1040 µM | kcat [1, 15]: 0.617 s⁻¹ | kcat ([2]; pH 4.5): 78.17 s⁻¹ | Km ([3]; pH 4.5): 75 µM | kcat ([3]; pH 4.5): 68.83 s⁻¹ | Km [4, 15]: 2470 µM | kcat [4, 15]: 143.5 s⁻¹

Molecule: COc1cc(C=NN=Cc2cc(OC)c(O)c(OC)c2)cc(OC)c1O [Syringaldazin, syringaldazin]
Km ([1]; 40 mM MES buffer, pH 6, 25° C.): 4.3 µM | kcat ([1]; 40 mM MES buffer, pH 6, 25° C.): 0.2 s⁻¹ | kcat ([2]; 40 mM MES buffer, pH 6, 25° C.): 78.5 s⁻¹ | Km ([3]; 40 mM MES buffer, pH 6, 25° C.): 4.3 µM | kcat ([3]; 40 mM MES buffer, pH 6, 25° C.): 32.33 s⁻¹ | Km ([4]; 40 mM MES buffer, pH 6, 25° C.): 115 µM | kcat ([4]; 40 mM MES buffer, pH 6, 25° C.): 15.5 s⁻¹

Molecule: [F-].[Na+] [NaF]
Inhibition (%) CtL [5]: 40% and 70%

After laccase treatment L* [7, 16]: 29.40 | After laccase treatment b* [7, 16]: −18.70 | After laccase treatment L* [7, 17]: 29.17 | After laccase treatment b* [7, 17]: −18.47 | After laccase treatment L* [7, 18]: 27.68 | After laccase treatment b* [7, 18]: −18.76 | After laccase treatment L* [7, 19]: 29.55 | After laccase treatment b* [7, 19]: −18.11 | After laccase treatment L* [7, 20]: 29.29 | After laccase treatment b* [7, 20]: −18.89 | After laccase treatment L* [7, 21]: 28.31 | After laccase treatment b* [7, 21]: −18.33 | After laccase treatment L* [11]: 29.23 | After laccase treatment b* [11]: −18.44
B1: TaLcc4: Thielavia arenaria ALKO 4197 laccase, SEQ ID NO: 45, produced in Trichoderma reesei (protein)
chain: MISRLLFTSSFTATLASALPGLLYAPHSSALLARSSCSGNTASTRSQWCDYSIDTDYTTEPVDTGVTREYWLELTDVTVSPDGVSRSAMAVNGSIPGPTIFADWGDTVVVHVTNSLSTSLNGTSIHWHGIRQNYTNQNDGVASITQCPLAVGESTTYTWKATQYGSSWYHSHFSLQAWEGVFGGIIINGPSTANYDEDLGMLFLNDWDHQTVDELYSSAETSGPPTLANGLINGTNVYGEDGDSSQTGTRLAVSFTSGTSYRMRLVNAAVDTHWKFSIGNHTMTVMAADLVPIEPYETTVLTIGMGQRYDIVVTADQADVADNFWMRAIPQSACSDNDSADNIRGIVYYGDSPGTPSTTGYDFEDACDDETANITPYISKTVSSAEWNDLETASVSRNSAGLFKWYLNSTTMLVDWAKPTLEMVTDNVTEYDSDDAIIELNEANQWVYMVVQTTLQVPHPIHLHGHDFFILAQGSGTYDSSTVTLKTDNPPRRDTAMLPSQGYLVMAWETDNPGVWLMHCHIGWHTSEGFALQFIERKSEIASIVSTSTMKDICTKWEEFQEEYSIEQEDSGV
modifications: Thielavia arenaria ALKO4197; (1)..(573) Deduced amino acid sequence of Thielavia arenaria ALKO4197 TaLcc4
Specific activity on ABTS [6]: 1000 nkat/mg | Increase of L* [7, 16]: −0.04 | Increase of L* [7, 17]: 1.01 | Increase of L* [7, 18]: 0.24 | Increase of L* [7, 19]: 1.35 | Increase of L* [7, 20]: 0.50 | Increase of L* [7, 21]: 0.47 | Tea L* [8, 22]: 75.09 | Tea a* [8, 22]: 5.73 | Tea b* [8, 22]: 22.08 | Tea L* [8, 23]: 74.56 | Tea a* [8, 23]: 5.58 | Tea b* [8, 23]: 23.55 | Tea L* [8, 24]: 76.74 | Tea a* [8, 24]: 5.05 | Tea b* [8, 24]: 21.67 | Tea L* [8, 25]: 75.13 | Tea a* [8, 25]: 5.19 | Tea b* [8, 25]: 22.44 | Specific activity on DMP [9]: 110 nkat/mg | Specific activity on syringaldazin [10]: 52 nkat/mg | Increase of L* [11]: 0.12 | greenness reduced (grass) ([12]; 50° C.): ca. 2 units | Grass L* [12, 22]: 78.53 | Grass a* [12, 22]: −6.07 | Grass b* [12, 22]: 19.33 | Grass L* [12, 23]: 78.94 | Grass a* [12, 23]: −3.77 | Grass b* [12, 23]: 16.77 | Grass L* [12, 24]: 79.84 | Grass a* [12, 24]: −4.98 | Grass b* [12, 24]: 17.62 | Grass L* [12, 25]: 78.62 | Grass a* [12, 25]: −4.00 | Grass b* [12, 25]: 17.16 | Specific activity on guaiacol [13]: 5 nkat/mg | pI [14]: 3.0

— patent US7732178B2, “Laccase enzymes and their uses” (AB Enzymes Oy, priority 2004, dated 2010)
